Test results as given in patent publication US20230265151A1, “GIP/GLP1 CO-AGONIST COMPOUNDS” (priority 2020, published 2023).

T1: human GIP receptor (human, UniProt P48546 22-466)
T1 construct: whole, on cells; also called hGIPR; human glucose-dependent insulinotropic polypeptide receptor
T1 sequence (looked up): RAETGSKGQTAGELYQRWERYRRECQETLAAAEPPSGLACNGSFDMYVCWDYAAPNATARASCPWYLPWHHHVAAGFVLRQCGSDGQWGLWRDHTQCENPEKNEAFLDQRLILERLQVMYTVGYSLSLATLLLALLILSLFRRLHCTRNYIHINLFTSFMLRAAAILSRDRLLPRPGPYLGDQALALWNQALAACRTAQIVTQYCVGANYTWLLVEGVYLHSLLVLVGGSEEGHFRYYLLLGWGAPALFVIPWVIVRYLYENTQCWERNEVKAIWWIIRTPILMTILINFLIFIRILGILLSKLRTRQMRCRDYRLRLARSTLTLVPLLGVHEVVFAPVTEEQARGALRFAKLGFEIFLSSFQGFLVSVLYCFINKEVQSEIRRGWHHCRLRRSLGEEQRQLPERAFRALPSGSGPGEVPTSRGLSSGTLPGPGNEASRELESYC


Experiments:
human GIP receptor = biological target: T1, human GIP receptor; assay: SPA competition vs [125I]-GIP, hGIPR membranes
Protocol: (§1) The binding buffer contains 25 mM HEPES, pH 7.4, 2.5 mM CaCl₂, 1 mM MgCl₂, 0.1% (w/v) bacitracin, 0.003% (w/v) TWEEN®-20, and Roche Complete™ Protease Inhibitors without EDTA. […] Plates are sealed and mixed on a plate shaker (setting 6) for 1 minute and read with a PerkinElmer Trilux MicroBeta® scintillation counter after 2.5 to 12 hours of incubation/settling time at room temperature.
(§2) Data are analyzed using four-parameter (curve maximum, curve minimum, IC₅₀, Hill slope) nonlinear regression routines (Genedata Screener, version 12.0.4, Genedata AG, Basal, Switzerland). […] Values for Kᵢ are reported as the geometric mean, with error expressed as the standard error of the mean (SEM) and n is equal to the number of independent replicates (determined in assays performed on different days). Geometric Means are calculated as follows: […]

human glucagon receptor [1] = biological target: T2, human glucagon receptor (human, UniProt P47871 26-477); assay: SPA competition vs [125I]-Gcg, hGcgR membranes
T2 construct: whole, on cells; also called hGCGR; hGcgR
Protocol: as §1, with “4-(2-hydroxyethyl)-1-piperazineethanesulfonic acid (HEPES),” for “HEPES,”, “MgCh,” for “MgCl₂,”, “bacitracin (Research Products),” for “bacitracin,”, “Polyoxyethylenesorbitan monolaurate (TWEEN®-20),” for “TWEEN®-20,”, “after” for “after 2.5 to”
T2 sequence (P47871 26-477): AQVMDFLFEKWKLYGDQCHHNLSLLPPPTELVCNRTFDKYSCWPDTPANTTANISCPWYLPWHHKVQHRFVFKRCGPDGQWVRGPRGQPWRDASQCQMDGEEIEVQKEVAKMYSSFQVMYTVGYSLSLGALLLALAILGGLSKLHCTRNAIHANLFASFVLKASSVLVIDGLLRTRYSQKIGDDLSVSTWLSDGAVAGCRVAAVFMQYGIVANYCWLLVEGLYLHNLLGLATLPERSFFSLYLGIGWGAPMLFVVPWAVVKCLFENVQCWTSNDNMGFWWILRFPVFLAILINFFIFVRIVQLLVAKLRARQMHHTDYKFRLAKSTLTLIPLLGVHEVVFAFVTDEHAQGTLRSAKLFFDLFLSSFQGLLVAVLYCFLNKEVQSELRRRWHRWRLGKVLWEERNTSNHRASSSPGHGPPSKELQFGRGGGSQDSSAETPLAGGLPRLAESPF
Data are analyzed using four-parameter (curve maximum, curve minimum, IC₅₀, Hill slope) nonlinear regression routines (Genedata Screener, version 12.0.4, Genedata AG, Basal, Switzerland). […] Values for Kᵢ are reported as the geometric mean, with error expressed as the standard error of the mean (SEM) and n is equal to the number of independent replicates (determined in assays performed on different days).

human GLP-1 receptor = biological target: T3, human GLP-1 receptor (human, UniProt P43220 24-463); assay: SPA competition vs [125I]-GLP-1, hGLP-1R membranes
T3 construct: whole, on cells; also called hGLP-1R; human glucagon-like peptide-1 receptor
Protocol: The binding buffer contains 25 mM HEPES, pH 7.4, 2.5 mM CaCl₂, 1 mM MgCl₂, 0.1% (w/v) bacitracin, 0.003% (w/v) TWEEN®-20, and Roche Complete™ Protease Inhibitors without EDTA.
as §2

human glucagon receptor [2] = biological target: human glucagon receptor (human, UniProt P47871 26-477); assay: cell-based or functional assay

| Binder | Ki (human GIP receptor) [nM] | Ki (human glucagon receptor [1]) [nM] | Ki (human GLP-1 receptor) [nM] | cAMP EC50 (1.0% HSA) (human glucagon receptor [2]) [nM] |
| --- | --- | --- | --- | --- |
| YXEGTXTSDXSIXLDXKAQXKFIXXLIEGGPSSGAPPPS (Aib2, αMeF(2F)6, 4Pal10, αMeL13, Orn16, K17(Z1), Aib20, K21(Z1), D-Glu24, αMeY25, C-term NH2; Z1=AEEA2-(γ-Glu)-CO-(CH2)10-CH3) | 0.0403 | 8.29 | 0.25 | – |
| YXEGTXTSDXSIXLDXKAQXEFIXXLIEGKPSSGAPPPS (Aib2, αMeF(2F)6, 4Pal10, αMeL13, Orn16, K17(Z1), Aib20, D-Glu24, αMeY25, K30(Z1), C-term NH2; Z1=AEEA2-(γ-Glu)-CO-(CH2)14-CH3) | 0.0361 | 0.646 | 0.52 | – |
| YXEGTXTSDXSIXLDXIAQXEFIXXLIKGGKSSGAPPPS (Aib2, αMeF(2F)6, 4Pal10, αMeL13, Orn16, Aib20, D-Glu24, αMeY25, K28(Z1), K31(Z1), C-term NH2; Z1=AEEA2-(γ-Glu)-CO-(CH2)12-CO2H) | 0.0722 | 139 | 1.96 | – |
| YXEGTXTSDXSIXLDXIAQXEFIXXLIKGGKSSGAPPPS (Aib2, αMeF(2F)6, 4Pal10, αMeL13, Orn16, Aib20, D-Glu24, αMeY25, K28(Z1), K31(Z1), C-term NH2; Z1=AEEA2-(γ-Glu)-CO-(CH2)14-CH3) | 0.0863 | 3.82 | 0.867 | – |
| YXEGTXTSDXSIXLDXIAQXKFIXXLIEGGPSSGAPPPSK (Aib2, αMeF(2F)6, 4Pal10, αMeL13, Orn16, Aib20, D-Glu24, αMeY25; acylated K21, K40 (groups as in name); C-terminal amide) [Y-Aib-EGT-αMeF(2F)-TSD-4Pal-SI-αMeL-LD-Orn-IAQ-Aib-K((2-[2-(2-Amino-ethoxy)-ethoxy]-acetyl)2-(γ-Glu)-CO-(CH2)12-CO2H)FI-(D-Glu)-αMeY-LIEGGPSSGAPPPSK((2-[2-(2-Am …, listing 1 of 3 here] | – | – | – | > 9950 |
| YXEGTXTSDXSIXLDXKAQXEFIXXLIEGGPSSGAPPPSK (Aib2, αMeF(2F)6, 4Pal10, αMeL13, Orn16, Aib20, D-Glu24, αMeY25; acylated K17, K40 (groups as in name); C-terminal amide) [Y-Aib-EGT-αMeF(2F)-TSD-4Pal-SI-αMeL-LD-Orn-K((2-[2-(2-Amino-ethoxy)-ethoxy]-acetyl)2-(γ-Glu)-(4-(4-tert-butylphenyl)butanoyl))AQ-Aib-EFI-(D-Glu)-αMeY-LIEGGPSSGA …, listing 1 of 3 here] | – | – | – | > 9950 |
| YXEGTXTSDXSIXLDXIAQXKFIXXLIEGGPSSGAPPPSK (Aib2, αMeF(2F)6, 4Pal10, αMeL13, Orn16, Aib20, D-Glu24, αMeY25; acylated K21, K40 (groups as in name); C-terminal amide) [Y-Aib-EGT-αMeF(2F)-TSD-4Pal-SI-αMeL-LD-Orn-IAQ-Aib-K((2-[2-(2-Amino-ethoxy)-ethoxy]-acetyl)2-CO-(CH2)12-CO2H)FI-(D-Glu)-αMeY-LIEGGPSSGAPPP …, listing 2 of 3 here] | – | – | – | > 9950 |
| YXEGTXTSDXSIXLDXKAQXEFIXXLIEGGPSSGAPPPSK (Aib2, αMeF(2F)6, 4Pal10, αMeL13, Orn16, Aib20, D-Glu24, αMeY25; acylated K17, K40 (groups as in name); C-terminal amide) [Y-Aib-EGT-αMeF(2F)-TSD-4Pal-SI-αMeL-LD-Orn-K((2-[2-(2-Amino-ethoxy)-ethoxy]-acetyl)-(γ-Glu)-(4-(4-tert-butylphenyl)butanoyl))AQ-Aib-EFI-(D-Glu)-αMeY-LIEGGPSSGAP …, listing 2 of 3 here] | – | – | – | > 9950 |
| YXEGTXTSDXSIXLDXKAQXEFIXXLIEGGPSSGAPPPSK (Aib2, αMeF(2F)6, 4Pal10, αMeL13, Orn16, Aib20, D-Glu24, αMeY25; acylated K17, K40 (groups as in name); C-terminal amide) [Y-Aib-EGT-αMeF(2F)-TSD-4Pal-SI-αMeL-LD-Orn-K((2-[2-(2-Amino-ethoxy)-ethoxy]-acetyl)2-(γ-Glu)-CO-(CH2)10-CH3)AQ-Aib-EFI-(D-Glu)-αMeY-LIEGGP S SGAPPP …, listing 3 of 3 here] | – | – | – | > 9950 |
| YXEGTXTSDXSIXLDXIAQXKFIXXLIEGGPSSGAPPPSK (Aib2, αMeF(2F)6, 4Pal10, αMeL13, Orn16, Aib20, D-Glu24, αMeY25; acylated K21, K40 (groups as in name); C-terminal amide) [Y-Aib-EGT-αMeF(2F)-TSD-4Pal-SI-αMeL-LD-Orn-IAQ-Aib-K((2-[2-(2-Amino-ethoxy)-ethoxy]-acetyl)2-(γ-Glu)-(4-(4-tert-butylphenyl)butanoyl))FI-(D-Glu)-αMeY-LIEGGPSSGA …, listing 3 of 3 here] | – | – | – | > 9950 |
